Source: patent US20220340666A1 (published 2022)
Positions count from the first letter of the chain named.

B1: G9.2-17 Fab (Fab, V domains shown)
VH: EVQLVESGGGLVQPGGSLRLSCAASGFTVSSSSIHWVRQAPGKGLEWVAYISSSSGYTYYADSVKGRFTISADTSKNTAYLQMNSLRAEDTAVYYCARYWSYPSWWPYRGMDYWGQGTLVTVSS
VL: DIQMTQSPSSLSASVGDRVTITCRASQSVSSAVAWYQQKPGKAPKLLIYSASSLYSGVPSRFSGSRSGTDFTLTISSLQPEDFATYYCQQSSTDPITFGQGTKVEIKR
B2: G9.2-15 Fab (Fab, V domains shown)
VH: EVQLVESGGGLVQPGGSLRLSCAASGFTVSSSSIHWVRQAPGKGLEWVASIYSSSGYTSYADSVKGRFTISADTSKNTAYLQMNSLRAEDTAVYYCARNVENYPYWAWPWGYYGAIDYWGQGTLVTVSS
VL: B1 VL with T93W, D94G, P95L
B3: G9.2-3 Fab (Fab, V domains shown)
VH: EVQLVESGGGLVQPGGSLRLSCAASGFTFSSSSIHWVRQAPGKGLEWVASISSSSGSTSYADSVKGRFTISADTSKNTAYLQMNSLRAEDTAVYYCARPAYSYPYYYFHYGAMDYWGQGTLVTVSS
VL: B1 VL with T93S, D94S, P95L
B4: G9.2-1 Fab (Fab, V domains shown)
VH: EVQLVESGGGLVQPGGSLRLSCAASGFTLYSSSIHWVRQAPGKGLEWVASIYSSSGYTYYADSVKGRFTISADTSKNTAYLQMNSLRAEDTAVYYCARTYTWKSSWSYQTGYGLDYWGQGTLVTVSS
VL: DIQMTQSPSSLSASVGDRVTITCRASQSVSSAVAWYQQKPGKAPKLLIYSASSLYSGVPSRFSGSRSGTDFTLTISSLQPEDFATYYCQQYKSKYPFTFGQGTKVEIKR
B5: G9.2-17mut6 Fab (Fab, V domains shown)
VH: B1 VH with W106S
VL: B1 VL
B6: G9.1-5 Fab (Fab, V domains shown)
VH: EVQLVESGGGLVQPGGSLRLSCAASGFTIYYSSIHWVRQAPGKGLEWVASISSSYGSTYYADSVKGRFTISADTSKNTAYLQMNSLRAEDTAVYYCARSVSWYPYYYYYGYGSGLDYWGQGTLVTVSS
VL: DIQMTQSPSSLSASVGDRVTITCRASQSVSSAVAWYQQKPGKAPKLLIYSASSLYSGVPSRFSGSRSGTDFTLTISSLQPEDFATYYCQQYYGWFYPVTFGQGTKVEIKR
B7: G9.1-8 Fab (Fab, V domains shown)
VH: EVQLVESGGGLVQPGGSLRLSCAASGFTVSSSSIHWVRQAPGKGLEWVAYIYPYSGYTSYADSVKGRFTISADTSKNTAYLQMNSLRAEDTAVYYCARYSTYSWGGIGKWVWGMDYWGQGTLVTVSS
VL: B6 VL with Y91S, G93Y, W94D, F95S, Y96N, V98I
B8: G9.1-11 Fab (Fab, V domains shown)
VH: EVQLVESGGGLVQPGGSLRLSCAASGFTVYSSSIHWVRQAPGKGLEWVASIYSYYGYTSYADSVKGRFTISADTSKNTAYLQMNSLRAEDTAVYYCARSTEGYDRWGYYSSYWSSGLDYWGQGTLVTVSS
VL: B1 VL with S91T, S92Y, T93W, D94G, P95L
B9: G9.1-6 Fab (Fab, V domains shown)
VH: EVQLVESGGGLVQPGGSLRLSCAASGFTLSSSSIHWVRQAPGKGLEWVASIYSSYGSTSYADSVKGRFTISADTSKNTAYLQMNSLRAEDTAVYYCARSSHWYMYWSYWGWYIGMDYWGQGTLVTVSS
VL: B1 VL with S91Y, S92H, T93S, D94S, P95L, I96F

molecular target: T1, human Galectin-9 CRD2 (residues 218-355), biotinylated (UniProt O00182 218-355, biotinylated in vitro with BirA (Avitag)); test: bead-based binding assay; apparent Kd
T1 sequence (O00182 218-355): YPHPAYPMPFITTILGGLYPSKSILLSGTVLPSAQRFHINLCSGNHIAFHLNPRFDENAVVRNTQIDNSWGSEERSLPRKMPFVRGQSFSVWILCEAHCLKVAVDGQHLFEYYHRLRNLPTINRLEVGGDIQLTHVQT

Kd [nM] | Binder
0.76 | B1
0.71 | B2
1380 | B3
4170 | B4

molecular target: T1, human Galectin-9 CRD2 (residues …); test: SPR

Kd [nM] | Binder
0.232 | B1
4.8 | B2

molecular target: T1, human Galectin-9 CRD2 (residues …); test: SPR; remark: another data set of the same source

Kd [nM] | Binder
0.219 | B1
0.154 | B5

molecular target: human Galectin-9 CRD1 (residues 1-148), biotinylated (UniProt O00182 1-148, biotinylated in vitro with BirA (Avitag)); test: bead-based binding assay; apparent Kd; plots and legend state CRD1
Sequence (O00182 1-148): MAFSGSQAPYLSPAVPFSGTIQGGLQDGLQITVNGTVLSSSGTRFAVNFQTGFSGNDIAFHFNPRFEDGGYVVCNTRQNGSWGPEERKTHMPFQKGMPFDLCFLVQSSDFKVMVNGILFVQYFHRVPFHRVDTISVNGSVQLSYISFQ

Kd [nM] | Binder
30.4 | B6
9.8 | B7
20.4 | B8
29.2 | B9
